Source: US12427188B2, “Pyocyanine demethylases and related phenazine degrading agents compositions, methods and systems for interfering with viability of bacteria” (priority 2020, dated 2025)
“Also recorded” adds a separate entry of the source.

Columns and labels:
[1] = Protein yield of PodA variants purified from inclusion bodies of overexpression culture; conditions: purified from inclusion bodies, per L of E. coli overexpression culture
Procedure: Protein overproduction and purification of soluble and inclusion body fractions. Plasmids coding for proteins of interest were transformed into E. coli BL21 […]. […]. Cultures were grown at 37° C. with shaking to an optical density of 0.4 (OD600 nm) and plasmid expression was induced with IPTG (50 μM) and shaken overnight at 16° C. Cells were harvested by centrifugation at 5,000×g for 10 min in a Beckman Coulter Avanti J-20 XOI refrigerated centrifuge using a JLA-8.1000 rotor at 4° C. Cell pellets were stored at −80° C. until used.
For purification of PodA from inclusion bodies, the pellets remaining following lysis and centrifugation at 40,000×g were resuspended in 20 mL of detergent buffer [50 mM HEPES (pH 7.5) and 1% Triton-X (v/v)] using a Bio-gen PRO200 cell homogenizer (PRO Scientific). Sample was spun for 15 min at 40,000×g at 4° C. in a Beckman Coulter Avanti centrifuge with a JA-25.50 rotor. Supernatant was discarded and the remaining cell pellet was resuspended in 5 mL of buffer [50 mM HEPES (pH 7.5), 500 mM NaCl] using a cell homogenizer, supplemented with lysozyme (200 μg mL^−1), and incubated for 10 min. Volume was increased to 20 mL with HEPES (50 mM, pH 7) and sample was spun for 40,000×g at 4° C. for 15 min. Supernatant was discarded and pellet was homogenized in 10 mL of denaturing buffer 50 mM HEPES (pH 7.5), 500 mM NaCl, and 8M urea) and incubating rocking overnight. The sample was spun at for 40,000×g at 25° C. for 30 min and supernatant was incubated with 1 mL HisPur Ni-NTA resin (Thermo Fisher Scientific) on a rocking platform for 10 min. Beads were allowed to settle without shaking, supernatant was discarded, and resin was pipetted into glass gravity columns. Resin was washed with 15 mL of denaturing buffer, followed by an elution with denaturing buffer supplemented with imidazole (500 mM). Fractions were analyzed by SDS-PAGE and those containing protein were combined into SnakeSkin 3.5 K MWCO dialysis tubing (Thermo Fisher Scientific). Urea was slowly dialyzed out in HEPES (50 mM, pH 7.5) and NaCl (500 mM) by lowing urea concentrations by 1 M increments. Each step was dialyzed at RT for 30 min. Protein was dialyzed in HEPES (50 mM, pH 7.5), NaCl (500 mM), and imidazole (20 mM) overnight at 4° C. The following day, protein was cleaved for 3 h at 25° C. with TEV protease (1:50 mg:mg ratio of TEV to PodA). The sample was applied to a HisPur gravity column and cleaved protein in the flow thru was confirmed by SDS-PAGE. Cleaved PodA protein was then dialyzed for storage for 3 h at 4° C. in HEPES (50 mM pH 7.5), NaCl (250 mM) and finally in HEPES (50 mM, pH 7.5), NaCl (100 mM), and glycerol (20%, v/v). Protein concentration was established on a NanoDrop™ using the extinction coefficient and MW of each protein. Protein was drop frozen in LN2 and stored at −80° C. until use.

Pseudomonas aeruginosa = test: Crystal violet biofilm assay; assay type: cell-based; conditions: 24 h incubation, protein added from the beginning
Procedure: Crystal violet assay. Pseudomonas aeruginosa grown overnight in LB were inoculated (1.5%, v/v) and grown for 24 h at 37° C. in 96-well round bottom plates in minimal medium (100 μL) with arginine (40 mM) as the sole carbon source. PodA was added with cells simultaneously and was present during growth and biofilm development. Planktonic cells were removed and attached cells were quantified with crystal violet staining (125 μL. 0.1% w/v), followed by washes with water and de-staining with an acetic acid (30%, v/v) mixture in water. Crystal violet was measured using a SpectraMax® M3 Microplate Reader (Molecular Devices) at an absorbance of 550 nm. Details of procedure were published previously (28)[43].

[2] = Continuous spectrophotometric PYO demethylation assay (specific activity and kinetics of PodA); assay type: biochemical; conditions: for Activity over range of pH: PodA10 3 μM
Procedure: Specific activity and kinetics of PodA. To determine specific activity and kinetic parameters of PodA for PYO, a continuous spectrophotometric assay monitoring the absorbance of PYO (690 nm) was utilized. Briefly, assays were performed at 25° C. in 100 μL reaction volumes in 96-well plates and reactions were monitored at 690 nm over 10 min. Reaction mixtures contained Phosphate buffer (50 mM, pH 6.0), ethylene glycol (1%, v/v), protein (3 μM) and substrate (for specific activity, 100 μM, for kinetics, varying). Data were acquired using the SpectraMax® M3 Microplate Reader (Molecular Devices) using the Soft Max Pro software every 10 s over 10 min. Path lengths for each well were calculated using Soft Max Pro endpoint readings and slopes were corrected for path lengths of 1 cm.
Specific activity was calculated from the slope of the linear range of (ΔOD690 min^−1) using Beer's Law (A=εcl) with a path length of 1 cm and the molar extinction coefficient of PYO (4,130 M^−1 cm^−1). Equation was solved for c, giving specific activity in nmol min^−1 mg^−1 of PodA. For kinetic parameters, graphs of initial velocity (μM s^−1) versus substrate concentration (μM) were plotted using Prism v8 (GraphPad). The Michaelis-Menten kinetics model was used to determine Km and Vmax. The turnover number (kcat) was determined using the following equation: Vmax=kcat[E], where [E] was the concentration of PodA added. All spectrophotometric assays mentioned above were completed thrice, each in technical triplicate with a representative data set shown. Error bars represent standard deviation as calculated by Prism v8 (GraphPad). Standard deviation for kcat and Kcat KM^−1 was calculated using standard formulas for propagation of error.

B1: PodA10: Designed PodA41-162 variant: A53N, I73T, A87V, M99V, A129T; SEQ ID NO: 4 (protein)
chain: MVTMTLDVKNDQVNKHDFGKPGMDVGDMDIFSDTLSVDGKQVGYDGGVCFFTNVTPDNPVTYCELTIHLDAGEIFARSLTPATLAPFTMTITGGTGEYANSKGELTVSGVATPDEKYELKLTK
Yield [1]: 5.92 mg/L^−1
biofilm attachment (crystal violet) (Pseudomonas aeruginosa): biofilm attachment defect that was comparable to that achieved by WT PodA41-162
catalytic efficiency in growth medium compared to buffer ([2]; LB and SCFM, PodA 3 μM): No change
catalytic efficiency compared with PodA^WT ([2]; Michaelis-Menten kinetics, 3 μM protein): slight increase in efficiency
PYO demethylation activity relative to wild type ([2]; PYO 50 μM, PodA variants 3 μM): wild-type activity was maintained
Activity over range of pH ([2]; PYO 100 μM): maintained activity over a large range of pH, with no observable preference between a pH of 5-9
Activity over range of pH ([2]; PYO 100 μM, listed as PodA1041-162): maintained activity over a large range of pH, with no observable preference between a pH of 5.5 and 9
Effect of salts (NaCl and KCl) on activity ([2]; cystic fibrosis sputum range, 66 mM Na+, 15 mM K+): not altered
Effect of slight increase in viscosity (ethylene glycol or glycerol 1% v/v) on activity ([2]; pH 6, PodA 3 μM, PYO 100 μM): slight ad-vantage; also recorded: slight advantage
